In patent publication US20120076782A1 (MorphoSys, published 2012):
Like-named read-outs stand apart in the source and are kept apart here.

What was measured:
[1] = target: T1, human CD38 on cells or tissue (human, UniProt P28907 1-300)
[2] = target: T1, human CD38 on cells or tissue; experiment: cell-based or functional assay
[3] = target: T1, human CD38 on cells or tissue; experiment: FACS Scatchard, IgG1 on RPMI8226 MM cells; mean of at least 2 determinations
CD20 on cell lines = CD20 on cell lines (UniProt P11836); experiment: cell-based or functional assay
CD20 on cell lines, sequence (P11836 whole entry): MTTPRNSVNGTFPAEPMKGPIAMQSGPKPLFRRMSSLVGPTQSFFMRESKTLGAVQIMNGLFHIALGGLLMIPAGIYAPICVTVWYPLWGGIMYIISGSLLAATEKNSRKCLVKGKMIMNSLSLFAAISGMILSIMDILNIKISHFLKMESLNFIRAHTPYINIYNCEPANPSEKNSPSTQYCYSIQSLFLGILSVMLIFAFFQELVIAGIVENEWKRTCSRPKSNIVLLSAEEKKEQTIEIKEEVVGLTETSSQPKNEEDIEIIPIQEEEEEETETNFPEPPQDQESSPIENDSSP

[4] = target: T1, human CD38 on cells or tissue; experiment: cell-based or functional assay; remark: listed apart in the source
bovine serum albumine [5] = target: T2, bovine serum albumine (bovine, UniProt P02769 25-607); experiment: ELISA; antigen coated at 5 µg/ml, anti-human Fab alkaline phosphatase conjugate, fluorescence Ex/Em 430/535 nm
T2 construct: Control antigen coated on ELISA wells; also called BSA
T2 sequence (P02769 25-607 limits assumed): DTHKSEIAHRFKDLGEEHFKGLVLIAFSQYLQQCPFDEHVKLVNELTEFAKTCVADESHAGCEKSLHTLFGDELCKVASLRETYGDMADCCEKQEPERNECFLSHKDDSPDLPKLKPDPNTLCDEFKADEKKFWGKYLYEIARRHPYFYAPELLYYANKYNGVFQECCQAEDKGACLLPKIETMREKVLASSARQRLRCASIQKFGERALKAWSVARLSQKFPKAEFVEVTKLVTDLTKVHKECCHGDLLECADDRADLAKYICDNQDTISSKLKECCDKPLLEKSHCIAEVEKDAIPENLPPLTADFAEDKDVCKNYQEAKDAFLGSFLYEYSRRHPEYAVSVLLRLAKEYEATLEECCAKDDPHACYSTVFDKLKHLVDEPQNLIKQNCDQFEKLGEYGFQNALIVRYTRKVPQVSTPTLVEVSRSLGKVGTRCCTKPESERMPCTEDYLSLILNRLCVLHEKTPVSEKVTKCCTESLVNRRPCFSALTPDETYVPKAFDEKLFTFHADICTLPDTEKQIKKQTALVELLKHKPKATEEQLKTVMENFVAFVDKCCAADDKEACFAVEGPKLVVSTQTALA

[6] = target: T3, hCD38 Fc fusion protein (aa 45-273) (human, UniProt P28907 45-273); experiment: as above
T3 construct: Making of this construct is not described; also called C-terminally deleted format; not shown: Fc part (not described for this construct)

[7] = target: T1, human CD38 on cells or tissue; experiment: cell-based or functional assay; remark: listed apart in the source
[8] = target: T1, human CD38 on cells or tissue; experiment: cell-based or functional assay; remark: listed apart in the source
[9] = target: T1, human CD38 on cells or tissue; experiment: cell-based or functional assay; remark: listed apart in the source
bovine serum albumine [10] = target: T2, bovine serum albumine; experiment: ELISA; antigen coated at 5 µg/ml, anti-murine Fab alkaline phosphatase conjugate, fluorescence Ex/Em 430/535 nm
[11] = target: T3, hCD38 Fc fusion protein (aa 45-273); experiment: as above
[12] = target: T4, cynomolgus monkey CD38 on cells or tissue (cynomolgus monkey, UniProt Q5VAN0 1-301); experiment: FACS on lymphocytes; IHC on spleen, lymph-nodes
T4 construct: whole, on cells
T4 sequence (Q5VAN0 whole entry): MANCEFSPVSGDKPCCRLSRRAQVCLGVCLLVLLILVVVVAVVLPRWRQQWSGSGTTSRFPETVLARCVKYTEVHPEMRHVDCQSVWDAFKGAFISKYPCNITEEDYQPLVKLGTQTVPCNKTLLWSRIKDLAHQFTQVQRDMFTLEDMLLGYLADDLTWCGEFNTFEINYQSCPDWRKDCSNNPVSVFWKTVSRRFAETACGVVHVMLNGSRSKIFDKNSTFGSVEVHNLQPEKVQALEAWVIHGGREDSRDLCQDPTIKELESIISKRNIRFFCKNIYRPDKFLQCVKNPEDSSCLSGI

[13] = target: T5, hCD38 Fc fusion protein (aa 45-300) (human, UniProt P28907 45-300); experiment: SPR (Biacore 3000), Fab over directly immobilized CD38-Fc fusion protein; mean of at least 2 determinations
T5 construct: produced in HEK293; also called full-length hCD38 Fc-fusion protein; soluble CD38-Fc

Molecule: chimeric OKT10 (antibody)
- max. specific killing in ADCC, NCI-H929 cells (MM), E:T 30:1, 5 µg/ml; column PC [1]: 54%
- ADCC EC50 [nM], LP-1 target cells [2]: 5.23 nM
- ADCC EC50 [nM], RPMI8226 target cells [2]: 4.1 nM
- CDC EC50 [nM], CHO-transfectants [2]: 9.3 nM
- Kd [3]: 8.28 nM

Molecule: Rituximab (antibody)
- Namalwa (max. spec. Killing), o/n incubation (CD20 on cell lines): < 1%
- Raji (max. spec. killing), o/n incubation (CD20 on cell lines): 9%

B1: MOR03077 human IgG1 (antibody, V domains shown)
VH: QVQLVQSGAEVKKPGASVKVSCKASGYTFTSYSINWVRQAPGQGLEWMGYIDPNRGNTNYAQKFQGRVTMTRDTSISTAYMELSSLRSEDTAVYYCAREYIYFIHGMLDFWGQGTLVTVSS
VL: DIVMTQSPLSLPVTPGEPASISCRSSQSLLFIDGNNYLNWYLQKPGQSPQLLIYLGSNRASGVPDRFSGSGSGTDFTLKISRVEAEDVGVYYCQQYSSKSATFGQGTKVEIKR
notes: also called MAb#1
- CDC EC50, LP-1 cells [4]: 5.6 nM
- CDC EC50 on hCD38-transfectants, fold better than reference antibody chOKT10 [4]: 3 fold
- binding result (bovine serum albumine [5]): no binding (tested: 10 µg/ml)
- binding result [6]: no binding (tested: 10 µg/ml)
- ADCC EC50 values in [nM], MM Samples (purified primary MM-cells) [7]: 0.08 nM
- MM-samples (max. spec. Killing), 4 hrs incubation [8]: 21%
- Namalwa (max. spec. Killing), o/n incubation [8]: 11%
- Raji (max. spec. killing), o/n incubation [8]: 21%
- ADCC EC50 [nM], LP-1 target cells [9]: 0.6 nM
- ADCC EC50 [nM], RPMI8226 target cells [9]: 0.08 nM
- CDC EC50 [nM], CHO-transfectants (mean from 2 determinations) [9]: 0.8 nM
- CDC EC50 [nM], CHO-transfectants (mean from 3 determinations) [9]: 0.94 nM
- Kd [3]: 0.89 nM

B2: MOR03080 human IgG1 (antibody, V domains shown)
VH: QVQLVESGGGLVQPGGSLRLSCAASGFTFSSYGMHWVRQAPGKGLEWVSNIYSDGSNTFYADSVKGRFTISRDNSKNTLYLQMNSLRAEDTAVYYCARNMYRWPFHYFFDYWGQGTLVTVSS
VL: DIELTQPPSVSVAPGQTARISCSGDNIGNKYVSWYQQKPGQAPVVVIYGDNNRPSGIPERFSGSNSGNTATLTISGTQAEDEADYYCSSYDSSYFVFGGGTKLTVLG
notes: also called MAb#3
- binding result (bovine serum albumine [5]): no binding (tested: 10 µg/ml)
- binding result [6]: no binding (tested: 10 µg/ml)
- MM-samples (max. spec. Killing), 4 hrs incubation [8]: 4%
- Namalwa (max. spec. Killing), o/n incubation [8]: < 1%
- Raji (max. spec. killing), o/n incubation [8]: 4%
- ADCC EC50 [nM], LP-1 target cells [9]: 0.17 nM
- ADCC EC50 [nM], RPMI8226 target cells [9]: 0.05 nM
- CDC EC50 [nM], CHO-transfectants (mean from 2 determinations) [9]: 3.2 nM
- CDC EC50 [nM], CHO-transfectants (mean from 3 determinations) [9]: 2.93 nM
- Kd [3]: 0.47 nM

B3: MOR03100 human IgG1 (antibody, V domains shown)
VH: QVQLVESGGGLVQPGGSLRLSCAASGFTFSSNGMSWVRQAPGKGLEWVSNISYLSSSTYYADSVKGRFTISRDNSKNTLYLQMNSLRAEDTAVYYCARFYGYFNYADVWGQGTLVTVSS
VL: DIELTQPPSVSVAPGQTARISCSGDNIGHYYASWYQQKPGQAPVLVIYRDNDRPSGIPERFSGSNSGNTATLTISGTQAEDEADYYCQSYDYLHDFVFGGGTKLTVLG
notes: also called LAC 3100; MAb#4
- binding result (bovine serum albumine [5]): no binding (tested: 10 µg/ml)
- binding result [6]: no binding (tested: 10 µg/ml)
- ADCC EC50 [nM], LP-1 target cells [9]: 1 nM
- ADCC EC50 [nM], RPMI8226 target cells [9]: 0.28 nM
- CDC EC50 [nM], CHO-transfectants (mean from 2 determinations) [9]: 10.9 nM
- CDC EC50 [nM], CHO-transfectants (mean from 4 determinations) [9]: 13.6 nM
- Kd [3]: 6.31 nM

B4: MOR03079 human IgG1 (antibody, V domains shown)
VH: QVQLVESGGGLVQPGGSLRLSCAASGFTFSNYGMHWVRQAPGKGLEWVSNIRSDGSWTYYADSVKGRFTISRDNSKNTLYLQMNSLRAEDTAVYYCARRYWSKSHASVTDYWGQGTLVTVSS
VL: DIQMTQSPSSLSASVGDRVTITCRASQDISAFLNWYQQKPGKAPKLLIYKVSNLQSGVPSRFSGSGSGTDFTLTISSLQPEDFATYYCQQAYSGSITFGQGTKVEIKR
notes: also called MAb#2
- CDC EC50, LP-1 cells [4]: 0.55 nM
- binding result (bovine serum albumine [5]): no binding (tested: 10 µg/ml)
- binding result [6]: no binding (tested: 10 µg/ml)
- MM-samples (max. spec. Killing), 4 hrs incubation [8]: 24%
- Namalwa (EC50), killing by cross-linking [8]: 0.08 nM
- Namalwa (max. spec. Killing), o/n incubation [8]: 18%
- Raji (EC50), killing by cross-linking [8]: 0.08 nM
- Raji (max. spec. killing), o/n incubation [8]: 21%
- ADCC EC50 [nM], LP-1 target cells [9]: 0.09 nM
- ADCC EC50 [nM], RPMI8226 target cells [9]: 0.04 nM
- CDC EC50 [nM], CHO-transfectants [9]: 0.41 nM
- Kd [3]: 0.6 nM

B5: MOR03079 human-mouse chimeric IgG2a (antibody, V domains shown)
VH: B4 VH
VL: B4 VL
notes: Chimeric IgG2a: human variable regions of MOR03079 fused to murine Fc gamma 2a constant regions; also called MAb#2 (chimeric: human variable domaine/murine Fc 2a); mu03079
- binding result (bovine serum albumine [10]): no binding (tested: 10 µg/ml)
- binding result [11]: no binding (tested: 10 µg/ml)

B6: MOR03080 human-mouse chimeric IgG2a (antibody, V domains shown)
VH: B2 VH
VL: B2 VL
notes: Chimeric IgG2a: human variable regions of MOR03080 and murine constant regions; also called MAb#3 (chimeric: human variable domaine/murine Fc 2a); mu03080
- binding result [12]: binds
- binding result (bovine serum albumine [10]): no binding (tested: 10 µg/ml)
- binding result [11]: no binding (tested: 10 µg/ml)

B7: MOR03077 Fab (Fab, V domains shown)
VH: B1 VH
VL: B1 VL
notes: also called antibody no
- Kd [13]: 56 nM

B8: MOR03079 Fab (Fab, V domains shown)
VH: B4 VH
VL: B4 VL
notes: also called antibody no
- Kd [13]: 2.4 nM

B9: MOR03080 Fab (Fab, V domains shown)
VH: B2 VH
VL: B2 VL
notes: also called antibody no
- Kd [13]: 27.5 nM

B10: MOR03100 Fab (Fab, V domains shown)
VH: B3 VH
VL: B3 VL
notes: also called LAC 3100; antibody no; 3100
- Kd [13]: 10 nM
